{
  "source": "paper PMC4741438",
  "about": "“Targeting the SIN3A-PF1 interaction inhibits epithelial to mesenchymal transition and maintenance of a stem cell phenotype in triple negative breast cancer” (Oncotarget, 2015)",
  "molecular_target": "PAH2 domain of mSin3A",
  "sequence (Q60520 whole entry, the tested form may be a part)": "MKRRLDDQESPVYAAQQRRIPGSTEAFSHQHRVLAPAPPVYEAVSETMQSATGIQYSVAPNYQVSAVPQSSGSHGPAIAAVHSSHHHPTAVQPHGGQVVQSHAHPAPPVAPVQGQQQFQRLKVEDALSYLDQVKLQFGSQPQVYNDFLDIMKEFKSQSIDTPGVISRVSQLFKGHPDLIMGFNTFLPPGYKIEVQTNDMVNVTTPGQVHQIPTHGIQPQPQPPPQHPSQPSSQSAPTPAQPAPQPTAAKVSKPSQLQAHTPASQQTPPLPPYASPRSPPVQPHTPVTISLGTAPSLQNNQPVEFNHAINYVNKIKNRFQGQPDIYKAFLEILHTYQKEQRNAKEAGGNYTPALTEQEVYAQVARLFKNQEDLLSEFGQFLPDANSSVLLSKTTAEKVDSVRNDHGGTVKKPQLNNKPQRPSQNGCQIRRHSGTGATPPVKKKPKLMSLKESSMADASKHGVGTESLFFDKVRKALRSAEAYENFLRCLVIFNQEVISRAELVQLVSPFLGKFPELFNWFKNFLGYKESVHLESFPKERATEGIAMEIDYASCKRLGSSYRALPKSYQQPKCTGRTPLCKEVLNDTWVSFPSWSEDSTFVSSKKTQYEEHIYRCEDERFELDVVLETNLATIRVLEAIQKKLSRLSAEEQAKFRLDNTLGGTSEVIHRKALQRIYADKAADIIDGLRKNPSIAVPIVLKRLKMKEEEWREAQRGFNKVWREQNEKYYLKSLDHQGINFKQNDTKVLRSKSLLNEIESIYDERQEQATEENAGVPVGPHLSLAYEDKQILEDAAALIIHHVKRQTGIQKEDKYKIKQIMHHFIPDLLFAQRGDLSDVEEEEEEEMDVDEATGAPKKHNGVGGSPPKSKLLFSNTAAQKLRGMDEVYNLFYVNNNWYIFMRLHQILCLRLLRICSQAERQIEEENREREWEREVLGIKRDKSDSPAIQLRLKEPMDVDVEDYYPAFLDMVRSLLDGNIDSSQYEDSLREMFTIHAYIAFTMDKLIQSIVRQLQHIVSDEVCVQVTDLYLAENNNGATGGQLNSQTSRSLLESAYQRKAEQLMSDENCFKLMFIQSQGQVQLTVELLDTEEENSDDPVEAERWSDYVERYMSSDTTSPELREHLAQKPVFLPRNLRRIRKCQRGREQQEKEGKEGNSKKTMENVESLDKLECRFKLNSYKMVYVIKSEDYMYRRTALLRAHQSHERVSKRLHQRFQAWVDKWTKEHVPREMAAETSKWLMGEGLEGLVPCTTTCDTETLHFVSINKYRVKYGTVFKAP",
  "experiment": "fluorescence polarisation",
  "data": [
    {"substance": "PF1-SID peptide", "values": [
      {"measurement": "IC50", "value": 15.6, "unit": "µM"}
    ]},
    {"substance": "Tat-SID (MAD-SID peptide)", "values": [
      {"measurement": "IC50", "value": 1.26, "unit": "µM"}
    ]}
  ]
}
